Earlier results in paper PMC6189303.
pKd: −log10 of the molar value.

Target: L1-CAM (UniProt P32004)
Sequence of UniProt P32004 (P32004 20-1120): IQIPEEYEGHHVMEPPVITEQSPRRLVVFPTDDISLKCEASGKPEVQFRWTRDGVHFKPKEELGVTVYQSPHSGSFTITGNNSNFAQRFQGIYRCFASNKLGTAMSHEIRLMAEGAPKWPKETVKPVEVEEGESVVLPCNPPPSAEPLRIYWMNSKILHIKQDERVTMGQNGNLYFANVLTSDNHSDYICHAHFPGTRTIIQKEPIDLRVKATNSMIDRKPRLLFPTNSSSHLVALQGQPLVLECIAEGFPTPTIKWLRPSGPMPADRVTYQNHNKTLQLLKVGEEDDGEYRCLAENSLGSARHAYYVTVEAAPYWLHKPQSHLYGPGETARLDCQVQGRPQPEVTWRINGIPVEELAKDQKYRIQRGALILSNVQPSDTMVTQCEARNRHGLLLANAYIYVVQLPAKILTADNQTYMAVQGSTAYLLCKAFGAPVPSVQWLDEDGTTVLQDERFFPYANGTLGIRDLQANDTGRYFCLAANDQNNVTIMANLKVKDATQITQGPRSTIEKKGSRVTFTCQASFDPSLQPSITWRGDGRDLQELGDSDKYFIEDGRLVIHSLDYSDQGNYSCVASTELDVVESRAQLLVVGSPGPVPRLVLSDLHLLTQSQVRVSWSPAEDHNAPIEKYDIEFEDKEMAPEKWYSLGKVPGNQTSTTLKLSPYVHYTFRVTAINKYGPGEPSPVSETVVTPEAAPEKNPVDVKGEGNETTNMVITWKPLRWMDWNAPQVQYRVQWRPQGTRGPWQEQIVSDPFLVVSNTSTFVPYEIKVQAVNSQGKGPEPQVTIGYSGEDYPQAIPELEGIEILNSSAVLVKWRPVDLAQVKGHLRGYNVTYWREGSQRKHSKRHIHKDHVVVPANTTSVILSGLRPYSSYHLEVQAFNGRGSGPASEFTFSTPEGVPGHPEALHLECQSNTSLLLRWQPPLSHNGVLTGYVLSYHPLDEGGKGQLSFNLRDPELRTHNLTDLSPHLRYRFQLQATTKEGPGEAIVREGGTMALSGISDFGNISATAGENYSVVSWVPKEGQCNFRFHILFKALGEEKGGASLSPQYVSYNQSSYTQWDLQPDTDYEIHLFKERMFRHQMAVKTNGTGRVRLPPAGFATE

**Q.** With Neurocan (from UniProt O14594) as the substance, how does the pKd read?
**A.** The pKd was 9.00.
